Measurements taken from article PMC7438732, “The H^+-Translocating Inorganic Pyrophosphatase From Arabidopsis thaliana Is More Sensitive to Sodium Than Its Na^+-Translocating Counterpart From Methanosarcina mazei” (Frontiers in Plant Science, 2020).

Substrate: O=P(O)(O)OP(=O)(O)O
Experiment: cells, lysate or membranes
Details: 0 mM added NaCl, 100 mM KCl, pH 7.2, 30 °C, Mg2PPi substrate without excess Mg2+, Na+ from Na4PPi present

B1: AVP1 (Arabidopsis thaliana) (protein)
chain: MVAPALLPELWTEILVPICAVIGIAFSLFQWYVVSRVKLTSDLGASSSGGANNGKNGYGDYLIEEEEGVNDQSVVAKCAEIQTAISEGATSFLFTEYKYVGVFMIFFAAVIFVFLGSVEGFSTDNKPCTYDTTRTCKPALATAAFSTIAFVLGAVTSVLSGFLGMKIATYANARTTLEARKGVGKAFIVAFRSGAVMGFLLAASGLLVLYITINVFKIYYGDDWEGLFEAITGYGLGGSSMALFGRVGGGIYTKAADVGADLVGKIERNIPEDDPRNPAVIADNVGDNVGDIAGMGSDLFGSYAEASCAALVVASISSFGINHDFTAMCYPLLISSMGILVCLITTLFATDFFEIKLVKEIEPALKNQLIISTVIMTVGIAIVSWVGLPTSFTIFNFGTQKVVKNWQLFLCVCVGLWAGLIIGFVTEYYTSNAYSPVQDVADSCRTGAATNVIFGLALGYKSVIIPIFAIAISIFVSFSFAAMYGVAVAALGMLSTIATGLAIDAYGPISDNAGGIAEMAGMSHRIRERTDALDAAGNTTAAIGKGFAIGSAALVSLALFGAFVSRAGIHTVDVLTPKVIIGLLVGAMLPYWFSAMTMKSVGSAALKMVEEVRRQFNTIPGLMEGTAKPDYATCVKISTDASIKEMIPPGCLVMLTPLIVGFFFGVETLSGVLAGSLVSGVQIAISASNTGGAWDNAKKYIEAGVSEHAKSLGPKGSEPHKAAVIGDTIGDPLKDTSGPSLNILIKLMAVESLVFAPFFATHGGILFKYF
- K0.5: 0.14 ± 0.08 mM
